These results are taken from article PMC11151058, “The Transpeptidase Sortase A Binds Nucleic Acids and Mediates Mammalian Cell Labeling”.

The target of data set [1] is T1, mgSrtA (Staphylococcus aureus, UniProt Q2FV99 60-206, P94R;D124G;D160N;D165A;Y187L;E189R;K190E;K196T;F200L). In words: band shift, SDS western blot; Western-blot shift: 10 uM protein, 20 uM oligo, HBSS, 37 C, 30 min (Fig 3D 10 min); EMSA: HBSS, 37 C, 30 min, 6% PAGE; MST: 20 mM HEPES, 300 mM NaCl, pH 6.8, 0.1% Tween 20, 25 C. The following applies: protein: recombinant, tags: N-terminal 6xHis (pET-28a), label: 5'Biotin. For orientation: Mobility shift assays separate free from complexed probe on a gel.

Data set [2] deals with T1, mgSrtA. In words: band shift, SDS western blot; 1 uM oligo; Western-blot shift: 10 uM protein, 20 uM oligo, HBSS, 37 C, 30 min (Fig 3D 10 min); EMSA: HBSS, 37 C, 30 min, 6% PAGE; MST: 20 mM HEPES, 300 mM NaCl, pH 6.8, 0.1% Tween 20, 25 C. The following applies: protein: recombinant; tags: N-terminal 6xHis (pET-28a); label: 5'Biotin.
In the next data set the target is mgSrtA-L200F (Staphylococcus aureus, UniProt Q2FV99 60-206, P94R;D124G;D160N;D165A;Y187L;E189R;K190E;K196T). In words: band shift, SDS western blot; Western-blot shift: 10 uM protein, 20 uM oligo, HBSS, 37 C, 30 min (Fig 3D 10 min); EMSA: HBSS, 37 C, 30 min, 6% PAGE; MST: 20 mM HEPES, 300 mM NaCl, pH 6.8, 0.1% Tween 20, 25 C. Particulars: protein: recombinant; tags: N-terminal 6xHis (pET-28a); label: 5'Biotin, 3'FITC.

The target of another data set is mgSrtA-R197A (Staphylococcus aureus, UniProt Q2FV99 60-206, P94R;D124G;D160N;D165A;Y187L;E189R;K190E;K196T;R197A;F200L). The data set is described as above. The following applies: protein: recombinant; tags: N-terminal 6xHis (pET-28a); label: 5'Biotin, 3'FITC.
A further data set deals with WTSrtA (Staphylococcus aureus, UniProt Q2FV99 60-206). Described as above. The following applies: protein: recombinant; tags: N-terminal 6xHis (pET-28a); label: 5'Biotin, 3'FITC.
In a further data set the target is 5M SrtA (Staphylococcus aureus, UniProt Q2FV99 60-206, P94R;D160N;D165A;K190E;K196T). The description is as above. Particulars: protein: recombinant; tags: N-terminal 6xHis (pET-28a); label: 5'Biotin, 3'FITC.
For a further data set, the target named is mgSrtA-triple (Staphylococcus aureus, UniProt Q2FV99 60-206, P94R;H120A;D124G;D160N;D165A;C184A;Y187L;E189R;K190E;K196T;R197A;F200L). The description is as above. Particulars: protein: recombinant; tags: N-terminal 6xHis (pET-28a); label: 5'Biotin, 3'FITC.
Another data set concerns the target mgSrtA-mono (Staphylococcus aureus, UniProt Q2FV99 60-206, P94R;D124G;N132A;K137A;Y143A;D160N;D165A;Y187L;E189R;K190E;K196T;F200L). The data set is described as above. Particulars: protein: recombinant; tags: N-terminal 6xHis (pET-28a); label: 5'Biotin, 3'FITC.
The next data set addresses mgSrtA-C184A (Staphylococcus aureus, UniProt Q2FV99 60-206, P94R;D124G;D160N;D165A;C184A;Y187L;E189R;K190E;K196T;F200L). The data set is described as above. Particulars: protein: recombinant; tags: N-terminal 6xHis (pET-28a); label: 5'Biotin, 3'FITC.
In another data set the target is mgSrtA-H120A (Staphylococcus aureus, UniProt Q2FV99 60-206, P94R;H120A;D124G;D160N;D165A;Y187L;E189R;K190E;K196T;F200L). The description is as above. The following applies: protein: recombinant; tags: N-terminal 6xHis (pET-28a); label: 5'Biotin, 3'FITC.
In data set [3] the target is T1, mgSrtA. In words: band shift, SDS western blot; 50 uM oligo; Western-blot shift: 10 uM protein, 20 uM oligo, HBSS, 37 C, 30 min (Fig 3D 10 min); EMSA: HBSS, 37 C, 30 min, 6% PAGE; MST: 20 mM HEPES, 300 mM NaCl, pH 6.8, 0.1% Tween 20, 25 C. Particulars: protein: recombinant; tags: N-terminal 6xHis (pET-28a); label: 5'Biotin.
Data set [4] deals with T1, mgSrtA. In words: band shift, SDS western blot; 20 uM oligo; Western-blot shift: 10 uM protein, 20 uM oligo, HBSS, 37 C, 30 min (Fig 3D 10 min); EMSA: HBSS, 37 C, 30 min, 6% PAGE; MST: 20 mM HEPES, 300 mM NaCl, pH 6.8, 0.1% Tween 20, 25 C. Particulars: protein: recombinant; tags: N-terminal 6xHis (pET-28a); label: 5'Biotin.

Turning to GGGG (ssDNA) [4G (Fig S17)], the binding result with mgSrtA [1] was “binds”.
For GGGGCGGGGTGGGGCGGGGT (ssDNA) [20G], in the data set with mgSrtA [2], the binding result is reported as “binds”.
In the case of GGGG (ssDNA) [BF 4G], the binding result with mgSrtA-L200F, with mgSrtA-R197A, with WTSrtA, with 5M SrtA, with mgSrtA [1] (3'FITC) and with mgSrtA-triple was “binds” in each case. Besides, the binding result with mgSrtA-mono, with mgSrtA-C184A and with mgSrtA-H120A was “binds” throughout.
In the case of GGGGCGGGGTGGGGC (ssDNA) [15G], the binding result in the data set with mgSrtA [2] is “binds”.
As for GGGGGG (ssDNA) [6G], the binding result with mgSrtA [3] is on record as “binds”.
Take GGGGGGGG (ssDNA) [8G]: in the data set with mgSrtA [4], the binding result was “binds”.
